According to the supplement of paper PMC10567573:

B1: USP39 (parent)
chain: FVEKNPTIVNFPITNVDLREYLSE
B2: CLCN6 (parent)
chain: ILRSQLVTLLVRGVCYSESQSSAS

Variants of: B1
Experiment: protein stability index of a GFP-peptide fusion (GPS, HEK-293T) (PSI 1-6); higher = more stable
Details: c terminus: a fixed tail appended
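Further: lentivirally expressed fusions sorted by FACS into six bins by GFP to DsRed ratio, PSI derived from sequencing read proportions per bin multiplied by bin number.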

Protein stability index: each site, then its substitutions
R19: H 1.25, V 1.83, A 2.92, P 2.08, F 2.81, N 1.99, C 2.05, M 1.65, I 2.49, D 1.44, G 1.64, L 2.06, Q 2.35, S 1.31, Y 2.1, W 2.13, T 1.63, E 2.09, K 1.78
N10: D 2.14, W 2.08, L 3.29, T 1.77, R 1.8, I 3.79, A 2.02, S 1.76, F 1.57, G 2.93, E 1.99, V 2.29, P 2.42, K 2.48, H 1.75, Q 2.3
E20: F 1.71, S 2.5, Q 2.08, I 2.01, L 1.39, C 1.68, M 2.41, N 1.55, P 2.02, V 2.28, A 1.46, R 1.41, H 2.01, K 2.56, Y 2.88, G 1.13, W 1.77, D 1.81, T 1.46
I13: K 2.25, P 1.91, S 2.59, H 1.81, R 1.98, Y 1.73, E 2.4, Q 2.22, T 1.36, D 2.17, C 1.77, F 2.08, G 1.71, N 2.42, A 2.23, V 2.03, L 1.67, M 2.6
V16: E 2.04, Y 1.62, H 1.49, R 2.78, P 2.29, K 1.74, M 2.37, D 1.89, C 1.41, T 2.94, L 2.05, I 1.6, N 1.49, Q 1.99, S 1.82, G 1.89, W 1.52, A 2.02, F 1.8
E24: M 1.59, C 2.11, R 1.53, N 2.24, Y 1.84, F 2.02, D 1.37, L 2.27, W 1.93, I 1.64, P 2.1, A 2.19, Q 2.04, K 1.84, T 1.78, H 2.5, G 2.14, S 1.88
P12: N 2.3, I 2.38, M 3.23, W 2.96, Q 1.74, T 2.28, F 3.66, E 1.66, A 2.06, V 2.28, H 1.47, K 1.56, C 1.48, R 2.74, S 1.34, G 2.21
F11: L 1.88, G 2.13, Y 3.36, H 2, V 1.82, E 3.01, M 1.78, P 2, K 2.05, D 2.82, I 2.42, R 2.02, S 1.77, C 2.01, A 1.85, W 1.23, T 2.02, N 2.22, Q 2.09
D17: H 2.25, G 2.02, Q 1.92, S 2.28, P 1.34, K 1.11, W 1.4, N 1.55, R 2.25, V 2.64, T 1.35, M 1.62, I 3.11, F 2.63, L 1.28, E 1.95, C 2.08, A 2.46, Y 1.84
S23: Q 1.78, F 2.12, G 1.34, A 1.57, V 1.77, I 3.78, D 1.84, Y 4.51, T 1.06, P 2.13, N 1.65, M 2, H 2.76, L 1.11, E 1.83, C 2.41, R 2.02, K 2.59
T14: K 1.73, V 2.08, H 2.09, N 2.67, M 1.57, A 1.74, C 1.72, R 2.78, L 1.86, P 1.54, W 3.7, E 1.43, Q 1.81, F 1.98, D 2.65, S 2.08, G 1.82, I 3.46, Y 1.97
L18: Q 2.64, A 1.69, C 2.64, W 2.33, E 2.05, F 2.06, N 1.78, V 2.65, R 1.71, G 2.1, M 1.64, S 1.43, H 1.42, D 2.21, K 1.3, Y 1.92, T 1.54, P 1.24, I 2.53
Y21: P 1.62, V 1.52, W 1.47, K 1.21, F 2.04, M 1.49, N 1.9, D 1.71, T 1.86, Q 1.87, A 2.35, E 2.21, S 2.27, L 2.27, G 2.44, R 1.57, C 1.6, I 2.04, H 2.84
V9: G 2.03, T 2.36, K 2.38, L 1.63, I 2.23, F 1.73, N 1.98, S 1.8, R 2.16, Y 3.09, H 1.8, M 1.63, P 1.89, Q 2.03
N15: G 1.37, V 2.27, T 1.43, K 2.13, C 1.77, R 2.21, D 1.56, L 2.05, M 2.12, H 1.44, P 1.45, I 2.26, Q 2.13, S 1.18, A 1.52, Y 2.3
L22: I 1.93, R 1.66, H 1.5, T 2.03, Q 2.44, Y 1.9, E 1.75, N 1.47, D 1.64, C 1.12, S 2.49, V 1.83, W 1.74, G 2.12, A 2.47, F 2.1, M 2.07, K 2.09, P 1.84

Variants of: B2
Experiment: as above
Details: c terminus: a fixed tail appended

Protein stability index of substitutions, site by site:
Y16: D 2.09, R 3.34, N 2.37
A23: K 2.29, D 4.03
L10: G 1.92
L6: I 2.86, Q 1.66
G13: Q 3.06, W 1.7, R 3.25
L2: G 2.64, I 3.02
C15: V 5.04
Q5: M 3.17, W 1.44
T8: L 1.83, N 2.15
S24: T 2.7, W 2.9
S21: W 3.14, E 4.5
R12: N 1.67, S 3.78, T 2.56
V11: N 3.1
Q20: Y 3.72, E 3.06
S17: T 2.24, E 2.11, G 2.54
I1: P 2.04, H 1.82, L 3.03
R3: P 2.36
S4: M 2.78
V14: W 2.82, N 1.57
E18: Q 2.09, M 2.09
S19: P 1.82, D 2.21
V7: S 2.18, W 1.96, A 2.81, R 2.57
L9: P 2.21
